# Assay results from US20250357519A1, “APPLICATIONS OF O2-INSENSITIVE FORMATE DEHYDROGENASE” (UNIVERSITY OF MARYLAND, BALTIMORE, priority 2022, published 2025).
# B1: DvH-FDH2 (protein)
# chain 1: MRMPRRTFIKLASASAGALAFAGLGQSLAPTVARAAELKIAKAKVTPSVCCFCAVGCGLLVYTDTQTGRSINIEGDPDHPTNEGTLCPKGASIWQTTERSKRVTKVLYRAPGAAAWEEKSWDWALPRIARKIKETRDATFELTNDKGQTVNRTRGIASVGSAAVDNEEGWLMQAMMRALGLVYIESHARIUHSSTVGALAESYGRGAMTNHWIDLKNSDVILIMGSNAAENHPISFKWVTRAQERGATLIHVDPRFTRTSAKADIHAHIRSGTDIAFFGGLIRYIMENDLFFRQYVVDYTNASYIVGADYGFADGLFTGFDAEKGTYNTKKWAFAADENGMTLKDPTLNDPRCVFQLMKAHYARYDRKTVSDVTGISEEQLATLWSTFASTGKPDRAGTILYAMGQCQHTVGVQNIRALSMIQLLLGNIGIAGGGVNALRGESNVQGTTDISLLCDNLSGYLPTPKASWATFDDYVKGTTPVDKDPKSANWWSNRGKYLASYMKSVYPTASHQDGYLWHPKVDDGKITDYSWLQIFERMSKGGFKGAFVWGQNPCAGGANAGKNRKAMETLDWMVVVNLFENESSLFWKGPGVDPAKVKTEVFFLPACMSVEKGGSIANSGRWLQWREPGPKPMGDSRSDGDIVLDLYDEIRKLYREEKGAFPEPVLALDTDYRTDGKYDHHKVAKTLNGKFLTDVTIGDKTYKAGQQVPGFAMLQADGSTTSGCWIFTGCYTDAGNMMARRDRTQTPEQAAIGLFPNWSYAWPANRRILYNRAAVDMTGKPFDPKRAVIAWNGEKWVGDVPDGGWKPGEKLPFIMIREGRGQLFGPGRVDGPFPEHYEPFESPLESHPFSKQRVNPTALAFSHEPKAVRDKRYPFICTTYRVTEQWQSGTMTRNTGWLKEMQPEGFCEISRELAKELGIANGDAVVLESLRGKVQVVAIVTPRLKPFKVMGEVMHEVGIPWQFGWGQHVGKGDSANLLSPSVGDPNTGIPETKVFMVNLRKA
# chain 2: MRPLGSLPQGMRRVSRRHIREAYMNGKTFFIDQTRCTACRGCQAACKQWKKFGSIETRNTGSYQNPPDLGPSTFKLVRFNEVEVDGKLKWLFFPEQCRHCLEPPCKMVADALIPGAIVQDAETGAVLYTEKTKGLDYMEVRSACPYDIPRQDPATGLLTKCNMCIDRVQNGMLPACVKTCPTGTMHFGDRADMLELAQKRLGEVKKRSPAALLADSDLVRVLYLCELAPANYHSHMVAEADTSRIGPFSRRALLRLRPFA
# modifications: non-natural residues; left off: small tags and cut ends
# Tests used:
# [1] = Phenazine ethosulfate (PES)/dichlorophenolindophenol (DCPIP) assay of formate oxidation by DvH-FDH2; type: biochemical, Desulfovibrio vulgaris Hildenborough; details: PES/DCPIP-based
# From the text: FIG. 38. Experimental workflow for aerobic PES/DCPIP assay. Prepare cuvette (1), fill with reaction mix (2), add stirrer (3), initiate kinetics by the addition of DvH-FDH2 while the contents of the cuvette are being mixed (4), and continue data collection until completion (5). Blue arrows shown at the bottom in steps 4 and 5 denote stirring.
# FIG. 39. Experimental workflow for anaerobic PES/DCPIP assay. Setup cuvette (1,2), add reaction mix (3), gas with argon (4), start the reaction by injecting DvH-FDH2 (5), and collect data until the reaction goes to completion (6). Blue arrows shown at the bottom in steps 4-6 represent stirring.
# In this dye-linked assay, PES (Em,7=+65 mV) serves as the primary electron acceptor. Following its reduction by FDH2, PES nonenzymatically transfers electrons to a second dye, DCPIP, facilitating spectrophotometric detection.^91 Workflows are described in FIGS. 38 and 39. PES was chosen over PMS because of its long-term stability.^120 Furthermore, necessary precautions were taken in handling and preparing the reagents, including protecting the reagents from light.^187 DvH-FDH2 was assayed in 1 mM PES (Sigma-Aldrich P4544-1G)/93 μM DCPIP (98% pure; Acros 152870100) in 50 mM Tris pH 8.0. […] Assays were performed using a UV-2600i spectrophotometer (Shimadzu Life Sciences) equipped with T2 Peltier/stirrer accessory (Quantum) and monitored at 600 nm. […]
# [2] = Oxygen consumption (Clark-type O2 electrode oximetry); type: biochemical, Desulfovibrio vulgaris Hildenborough
# equine cytochrome c = test: Reduction of equine cytochrome c by DvH-FDH2; type: biochemical
# [3] = H2O2 production, coumarin boronic acid (CBA) assay; type: biochemical, Desulfovibrio vulgaris Hildenborough; details: aerobic catalysis, formate between 1 and 10 Km
# Protocol: Coumarin Boronic Acid (CBA) Assay. 10 mg of coumarin boronic acid (CBA) Cayman Chemicals 14051) was dissolved in 3.33 mL of DMSO. 101 μL of the CBA stock and 1.6 μL 0.5MDTPA were added to 3.9 mL 50 mM sodium phosphate pH 7.4 to produce a 2× working solution. The remaining steps essential identical to those used in the AR assay except that the plate was shaken at 400 rpm in an incubator (23° C.) for 15 min prior to CBA addition. Fluorescence detection was initiated by addition of 50 μL of the CBA 2× working solution, and the plate was scanned in fluorescence mode (excitation 332 nm and emission 470 nm). This method was also used in the context of redox bifurcation to quantify H2O2 production by DvH-FDH2 in the presence of 30 μM cytochrome c. Independently, the latter was incubated with H2O2 for the same duration (in the absence of DvH-FDH2) to assess the extent of peroxidase activity. Cytochrome c concentration was estimated as follows: oxidized ε410=106.1 mM^−1 cm^−1 and reduced ε550=29.5 mM^−1 cm^−1.
# The following controls were common to both CBA and AR assays. (1) Heat-denatured DvH-FDH2, (2) addition of catalase (100 U/mL), (3) addition of SOD (10 U/mL), (4) FDH2 omitted, (5) fluorogenic substrate excluded, (6) formate excluded, and (7) buffer only.
# [4] = H2O2 production, Amplex Red (AR) method; type: biochemical, Desulfovibrio vulgaris Hildenborough; details: aerobic DvH-FDH2 catalysis, AR assay
molecule,measurement,setting,value
B1,"kcat/Km for formate oxidation, fold higher than aerotolerant Mo-Cys-FDH from Rhodobacter capsulatus (NAD^+)",[1],~500 fold
same,electron flux towards hydrogen peroxide generation (u/v value),"[2]; oximetry, catalase added after equilibrium",~80%
same,fraction of electrons from formate ending up in H2O2 (x/y value),"[2]; oximetry, catalase added after equilibrium, likely an underestimate",roughly one quarter
same,O2 uptake lower in presence of catalase (initial velocities),[2]; presence vs absence of catalase,50%
same,native equine cytochrome c reduction,equine cytochrome c; anaerobic conditions,stoichiometric reduction
same,native equine cytochrome c reduced,"equine cytochrome c; in air, 30 μM cytochrome c, 10 μM formate",~80%
same,H2O2 production,[3],64±6%
same,H2O2 produced per mole of formate oxidized,[4],roughly 0.75 mol
